The target in test [1] is T1, recombinant purified human IL-12 p70 (human, UniProt P29459 23-219).
T1 construct: Disulfide-linked heterodimer of p35 and p40; also called hIL-12; Hu IL-12
T1 sequence 1: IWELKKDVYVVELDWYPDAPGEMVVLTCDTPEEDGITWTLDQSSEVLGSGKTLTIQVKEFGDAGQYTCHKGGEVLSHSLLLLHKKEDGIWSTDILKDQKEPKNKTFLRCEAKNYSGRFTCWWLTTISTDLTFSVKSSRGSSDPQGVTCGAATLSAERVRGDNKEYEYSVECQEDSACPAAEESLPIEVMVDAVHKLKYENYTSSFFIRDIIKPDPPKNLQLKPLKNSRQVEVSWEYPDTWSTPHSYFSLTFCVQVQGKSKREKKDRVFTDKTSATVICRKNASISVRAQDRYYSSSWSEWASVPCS
T1 sequence 2: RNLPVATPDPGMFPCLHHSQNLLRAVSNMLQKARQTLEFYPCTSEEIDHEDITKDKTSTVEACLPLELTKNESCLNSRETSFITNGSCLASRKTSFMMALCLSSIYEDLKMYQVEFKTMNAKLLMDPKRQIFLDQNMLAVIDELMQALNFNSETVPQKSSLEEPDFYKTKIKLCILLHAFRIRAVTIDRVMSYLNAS
Description: competition ELISA on coated human IL-12, competitor of 0.8 µg/ml biotinylated 8E1, Expt. 2. How it is done: MaxiSorp ELISA plates (Nalge Nunc International) were coated overnight at 4° C. with 100 μl/well of 1.0 μg/ml human IL-12 in 0.2 M sodium carbonate-bicarbonate buffer, pH 9.4, washed with Wash Buffer (PBS containing 0.1% Tween 20), and blocked for 1 hr at room temperature with 300 μl/well of SuperBlock Blocking Buffer in TBS (Pierce Chemical Company). After washing with Wash Buffer, a mixture of biotinylated 8E 1 ([…] final concentration) and competitor antibody (8E1 or 8E1.4 or 8E1.5 or 8E1.6) starting at 100 μg/ml final concentration and serially diluted 3-fold) in 100 μl/well of ELISA buffer was added in duplicate. As isotype controls, 100 μl/well of 100 μg/ml mouse IgG 1/κ (MuFd79) or humanized IgG1/κ (HuFd79) monoclonal antibodies in ELISA buffer was used. As a no-competitor control, 100 μl/well of ELISA Buffer was used. After incubating the plates for 1 hr at room temperature, and washing with Wash Buffer, bound antibodies were detected using 100 μl/well of 1 μg/ml HRP-conjugated streptavidin (Pierce Chemical Company) in ELISA buffer. After incubating for 1 hr at room temperature, and washing with Wash Buffer, color development was performed by adding 100 μl/well of ABTS Peroxidase Substrate/Peroxidase Solution B (KPL, Inc.). […] Absorbance was read at 415 nm.
(§1) The affinity of 8E1.4, 8E1.5 and 8E1.6 to human IL-12 was analyzed by competition ELISA as described above.
A general note: In an ELISA, binding on a coated surface is turned into a signal by an enzyme label.

Test [2] addresses T1, recombinant purified human IL-12 p70. Description: competition ELISA on coated human IL-12, competitor of 0.8 µg/ml biotinylated 8E1, average. How it is done: (§2) MaxiSorp ELISA plates (Nalge Nunc International) were coated overnight at 4° C. with 100 μl/well of 1.0 μg/ml human IL-12 in 0.2 M sodium carbonate-bicarbonate buffer, pH 9.4, washed with Wash Buffer (PBS containing 0.1% Tween 20), and blocked for 1 hr at room temperature with 300 μl/well of SuperBlock Blocking Buffer in TBS (Pierce Chemical Company). […] As isotype controls, 100 μl/well of 100 μg/ml mouse IgG 1/κ (MuFd79) or humanized IgG1/κ (HuFd79) monoclonal antibodies in ELISA buffer was used. As a no-competitor control, 100 μl/well of ELISA Buffer was used. After incubating the plates for 1 hr at room temperature, and washing with Wash Buffer, bound antibodies were detected using 100 μl/well of 1 μg/ml HRP-conjugated streptavidin (Pierce Chemical Company) in ELISA buffer. After incubating for 1 hr at room temperature, and washing with Wash Buffer, color development was performed by adding 100 μl/well of ABTS Peroxidase Substrate/Peroxidase Solution B (KPL, Inc.). After incubating for 5 min at room temperature, color development was stopped by adding 50 μl/well of 2% oxalic acid. Absorbance was read at 415 nm.
as §1

The target is the same in test [3]. Description: competition ELISA on coated human IL-12, competitor of 0.8 µg/ml biotinylated 8E1, Expt. 1. As to the method: as §2, §1
Test [4] has the same target. Description: competition ELISA on coated human IL-12, competitor of 0.8 µg/ml biotinylated 8E1, Expt. 3. As to the method: as §2, §1
For test [5] the target is unchanged. Description: SPR (Biacore) according to Example 1.1.B. As to the method: The BIACORE assay (Biacore, Inc, Piscataway, N.J.) determines the affinity of antibodies with kinetic measurements of on-, off-rate constants. Binding of antibodies to recombinant purified human IL-12 p70 or recombinant purified human IL-12 p40 were determined by surface plasmon resonance-based measurements with a Biacore® 3000 instrument (Biacore® AB, Uppsala, Sweden) using running HBS-EP (10 mM HEPES [pH 7.4], 150 mM NaCl, 3 mM EDTA, and 0.005% surfactant P20) at 25° C. All chemicals were obtained from Biacore® AB (Uppsala, Sweden) or otherwise from a different source as described in the text. Approximately 5000 RU of goat anti-mouse IgG, (Fcγ), fragment specific polyclonal antibody (Pierce Biotechnology Inc, Rockford, Ill.) diluted in 10 mM sodium acetate (pH 4.5) was directly immobilized across a CM5 research grade biosensor chip using a standard amine coupling kit according to manufacturer's instructions and procedures at 25 μg/ml. Unreacted moieties on the biosensor surface were blocked with ethanolamine. Modified carboxymethyl dextran surface in flowcell 2 and 4 was used as a reaction surface. Unmodified carboxymethyl dextran without goat anti-mouse IgG in flow cell 1 and 3 was used as the reference surface. For kinetic analysis, rate equations derived from the 1:1 Langmuir binding model were fitted simultaneously to association and dissociation phases of all eight injections (using global fit analysis) with the use of Biaevaluation 4.0.1 software. Purified antibodies were diluted in HEPES-buffered saline for capture across goat anti-mouse IgG specific reaction surfaces. Mouse antibodies to be captured as a ligand (25 μg/ml) were injected over reaction matrices at a flow rate of 5 μl/min. The association and dissociation rate constants, kₒₙ (unit M⁻¹ s⁻¹) and koff (unit s⁻¹) were determined under a continuous flow rate of 25 μl/min. Rate constants were derived by making kinetic binding measurements at ten different antigen concentrations ranging from 10-200 nM. The equilibrium dissociation constant (unit M) of the reaction between mouse antibodies and recombinant purified human IL-12 p70 or recombinant purified human IL-12 p40 was then calculated from the kinetic rate constants by the following formula: KD=koff/kₒₙ. Binding is recorded as a function of time and kinetic rate constants are calculated.
(SPR reads the build-up and loss of mass on a sensor chip optically.)

B1: additional humanized anti-IL-12 antibody 8E1.6 (antibody, V domains shown)
VH: EVQLVESGGGLVQPGGSLRLSCAASGFTFSDYGMVWVRQAPGKGLEWVASISSGSSNIYYADTVKGRFTISRDDAKNTLYLQMNSLRAEDTAVYYCARNPYWGQGTLVTVSS
VL: DIQMTQSPSSLSASVGDRVTITCKASQNVGTNVAWYQQKPGKAPKGLIYSASHRYSGVPSRFSGSGSGTDFTLTISSLQPEDFATYYCQQYNSYPLTFGGGTKVEIKR
notes: IgG1/kappa, expressed in 293T/17 cells from pVg1.D.Tt (D356E L358M, L234A L235A) and pVk
What is called IC50 is the midpoint of a concentration-inhibition curve. By Kd is commonly meant the concentration at which binding is half-saturated. Broadly, the koff is the first-order rate constant of dissociation. One may read the kon as the second-order rate constant of association. With B1, the IC50 was 2.43 µg/mL in test [1], 2.1 µg/mL in test [2], 2.25 µg/mL in test [3] and 1.61 µg/mL in test [4]. Moreover, in test [5], the Kd came out at 0.046 nM. In addition, the off-rate constant (koff) in test [5] amounted to 8e-05 s⁻¹. Further, the kon in test [5] is 1.7e+06 M⁻¹ s⁻¹.
